Results on two molecules are retold here after article PMC7016029.

Data set [1] concerns the target T1, VEGFR-1 Fc chimera (UniProt P17948 27-758). In words: SPR. Background: In SPR one partner is held on a chip, and binding of the other changes the refractive index at the surface.
Data set [2] addresses T1, VEGFR-1 Fc chimera. The data set can be described thus: SPR. The source holds these as a separate data set.

Where two headings read alike, the source gives them in different places.

T1 sequence (P17948 27-758, change not shown): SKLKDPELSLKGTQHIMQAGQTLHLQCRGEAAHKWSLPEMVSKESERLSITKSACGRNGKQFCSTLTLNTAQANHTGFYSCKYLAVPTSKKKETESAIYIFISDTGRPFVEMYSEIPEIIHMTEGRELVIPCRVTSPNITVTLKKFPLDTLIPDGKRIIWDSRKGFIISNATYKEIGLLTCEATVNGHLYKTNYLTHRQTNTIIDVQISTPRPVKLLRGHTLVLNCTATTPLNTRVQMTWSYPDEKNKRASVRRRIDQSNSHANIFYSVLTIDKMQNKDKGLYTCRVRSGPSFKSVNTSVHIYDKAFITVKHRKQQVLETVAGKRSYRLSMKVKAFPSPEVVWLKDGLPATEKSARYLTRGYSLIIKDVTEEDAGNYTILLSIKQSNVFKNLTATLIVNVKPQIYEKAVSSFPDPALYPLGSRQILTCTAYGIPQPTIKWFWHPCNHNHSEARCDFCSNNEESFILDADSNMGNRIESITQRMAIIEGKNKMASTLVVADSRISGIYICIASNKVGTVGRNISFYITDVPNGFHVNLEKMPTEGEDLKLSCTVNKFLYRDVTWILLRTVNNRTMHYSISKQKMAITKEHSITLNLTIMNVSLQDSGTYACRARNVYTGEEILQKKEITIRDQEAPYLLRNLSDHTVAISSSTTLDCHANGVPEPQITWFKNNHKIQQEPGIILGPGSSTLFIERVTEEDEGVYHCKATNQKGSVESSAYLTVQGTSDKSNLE

B1: Apt01 (structured_DNA)
DNA: GTCGTGTTTGTTGTTGTTTTCATTTTTGCGGCCC
The term Kd denotes the constant that tells how readily two partners part at equilibrium. A lower Kd goes with tighter binding. B1: in the data set with VEGFR-1 Fc chimera [1], binding was characterised by a dissociation constant (Kd) of 3.3 nM.

B2: Apt02 (structured_DNA)
DNA: GCTGATAGGATGGGTTGTAGGTCTAGGGGGGGGCC
For B2, in the data set with VEGFR-1 Fc chimera [2], the affinity, expressed as Kd, was 1.5 nM.
